This note sets out measurements from publication doi:10.1101/2024.10.08.617332 (bioRxiv, 2024).

B1: αE-catenin α(CA) (M319G/R326E/R551E), as chain of the supra-complex (natural protein, mouse, UniProt P26231 1-906, looked up)
chain: MTAVHAGNINFKWDPKSLEIRTLAVERLLEPLVTQVTTLVNTNSKGPSNKKRGRSKKAHVLAASVEQATENFLEKGDKIAKESQFLKEELVVAVEDVRKQGDLMKSAAGEFADDPCSSVKRGNMVRAARALLSAVTRLLILADMADVYKLLVQLKVVEDGILKLRNAGNEQDLGIQYKALKPEVDKLNIMAAKRQQELKDVGNRDQMAAARGILQKNVPILYTASQACLQHPDVAAYKANRDLIYKQLQQAVTGISNAAQATASDDAAQHQGGSGGELAYALNNFDKQIIVDPLSFSEERFRPSLEERLESIISGAALGADSSCTEDDRRERIVAECNAVRQALQDLLSEYMGNAGRKERSDALNSAIDKMTKKTRDLRRQLRKAVMDHVSDSFLETNVPLLVLIEAAKNGNEKEVKEYAQVFREHANKLIEVANLACSISNNEEGVKLVRMSASQLEALCPQVINAALALAAKPQSKLAQENMDLFKEQWEKQVRVLTDAVDDITSIDDFLAVSENHILEDVNKCVIALQEKDVDGLDRTAGAIRGRAAEVIHVVTSEMDNYEPGVYTEKVLEATKLLSNTVMPRFTEQVEAAVEALSSDPAQPMDENEFIDASRLVYDGIRDIRKAVLMIRTPEELDDSDFETEDFDVRSRTSVQTEDDQLIAGQSARAIMAQLPQEQKAKIAEQVASFQEEKSKLDAEVSKWDDSGNDIIVLAKQMCMIMMEMTDFTRGKGPLKNTSDVISAAKKIAEAGSRMDKLGRTIADHCPDSACKQDLLAYLQRIALYCHQLNICSKVKAEVQNLGGELVVSGVDSAMSLIQAAKNLMNAVVQTVKASYVASTKYQKSQGMASLNLPAVSWKMKAPEKKPLVKREKQDETQTKIKRASQKKHVNPVQALSEFKAMDSI
notes: αE-catenin, mouse, untagged; residues 690–903 are modelled in the structure; used for the pairs that touch in the cryo-EM structure; also called αE-catenin ABD; ABD1; source: FreeStyle 293-F, co-expressed and purified within the tetramer Eβα(CA)-vinculin(T12-IV)

For data set [1], the target named is F-actin (chicken skeletal muscle actin) (UniProt P68139). The experiment in a line: F-actin co-sedimentation assay. The conditions noted are these: +CC (black bar; with mutant afadin-CC); mean ± SD of three independent experiments; parent: est. 0.89; read off a plot.
Data set [2] concerns the molecule itself. The experiment in a line: cryo-EM structure; 2.5 μM tetramer Eβα(CA)-Vinculin(T12-IV) premixed with 5 μM afadin-CC, added to 0.6 μM F-actin on the grid; maps at 3.1 Å (straight, both strands decorated) and 4.1 Å (curved, one strand decorated).
The target of data set [3] is B1. Described as above. To be noted: both partners purified.

In the case of “Eβα(CA)–vinculin(T12-IV)–afadin-CC pentamer (from UniProt Q02248;P26231;P18206-2;Q9QZQ1-3) afadin-CC:F1564A”, in data set [1], the response amounted to 0.35.

On to “Eβα(CA)–vinculin(T12-IV)–afadin-CC pentamer (from UniProt Q02248;P26231;P18206-2;Q9QZQ1-3) afadin-CC:W1514A; afadin-CC:R1516A; afadin-CC:D1517A; afadin-CC:F1564A”, for which the response in data set [1] came to 0.3.

Regarding B1, in data set [2], the binding result is recorded as “binds”.

B2: afadin-CC (afadin coiled-coil region, residues 1393–1602), purified (domain or fragment, mouse, UniProt Q9QZQ1-3 1393-1602, looked up)
chain: ANQAGPQSAQVAAAEWKKREEHQRWYEKEKARLEEERERKRREQERKLGQMRSQTLNPASFSPLATQAKPEKPSTLQRPQETVIRELQPQQQPRTIERKDLQYITISKEELSSGDSLSPDPWKRDAREKLEKQQQMHIVDMLSKEIHELQNKVDRTAEESDRLRKLMLEWQFQKRLQESKQKDEDDDEEEDDDVDTMLIMQRLEAERRAR
notes: afadin coiled-coil region (afadin-CC), mouse; residues 1508–1578 are modelled in the structure; source: FreeStyle 293-F, transfected, purified (anti-GFP beads, TEV, MonoQ, SEC); not shown: GFP, N-terminal, cleaved
In the case of B2, the binding result in data set [3] is recorded as “binds”.
